{"source": "paper PMC12524584", "about": "“Structures, Interactions, and Antimicrobial Activity of the Shortest Thanatin Peptide from Anasa tristis” (International Journal of Molecular Sciences, 2025)", "target": "T1, LptAm of Klebsiella pneumoniae (truncated but functional variant of the LPS transport periplasmic protein … (Klebsiella pneumoniae, UniProt A0A377YZM8 28-159, 15N-labeled))", "T1 construct": "LptA, periplasmic LPS transport protein of Klebsiella pneumoniae, amino acids 28-159 (LptAm); synthetic gene in pET24a(+); also called 15N-LptAm; source: E. coli BL21, purified (Ni-NTA, size-exclusion chromatography), 15N-labeled in M9 minimal medium", "T1 sequence": "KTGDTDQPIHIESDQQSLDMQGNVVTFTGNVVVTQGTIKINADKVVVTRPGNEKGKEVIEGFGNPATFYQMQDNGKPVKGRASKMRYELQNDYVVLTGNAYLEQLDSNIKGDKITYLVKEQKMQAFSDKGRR", "experiment": "NMR titration; 15N-1H HSQC of 15N-LptAm free and with Ana-thanatin at protein:peptide molar ratios 1:1 and 1:2; 298 K", "conditions": "both partners purified", "note": "Bridges are numbered along the chain shown (N, C = ends). Where no end group is shown, it is not given here."}
{"binder": "VPIYYCNRKTGKCRRL (disulfide 6-13 (inferred), thanatin of the squash bug Anasa tristis, 16 residues, V1-L16; Single disulfide-bonded beta-hairpin peptide; the disulfide would join C6 and C13, the only two Cys; also called Anasa tristis thanatin; Ana-thanatin peptide; source: synthetic peptide (chemically synthesized by GenScript))", "note": "[Ana-thanatin (16-residue thanatin from Anasa tristis)]", "values": [{"measurement": "stoichiometry N", "result": 1}]}
